Assay results as given in patent US20230030032A1 (AGGAMIN, published 2023).

T1: purified human Bmp9 (human, UniProt Q9UK05 320-429, limits assumed)
T1 construct: also called Bone Morphogenetic Protein 9
T1 sequence (looked up): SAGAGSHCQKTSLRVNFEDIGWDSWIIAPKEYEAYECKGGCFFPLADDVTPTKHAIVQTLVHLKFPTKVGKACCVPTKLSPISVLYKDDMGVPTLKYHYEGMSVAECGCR

T2: soluble Endoglin (sEng), recombinant, as spiked or purified protein (human, UniProt P17813 26-586, limits assumed)
T2 construct: sEng applied to columns (80 or 60 ng/ml), used in SEC and coated in ELISA; construct not specified there; also called spiked sEng
T2 sequence (looked up): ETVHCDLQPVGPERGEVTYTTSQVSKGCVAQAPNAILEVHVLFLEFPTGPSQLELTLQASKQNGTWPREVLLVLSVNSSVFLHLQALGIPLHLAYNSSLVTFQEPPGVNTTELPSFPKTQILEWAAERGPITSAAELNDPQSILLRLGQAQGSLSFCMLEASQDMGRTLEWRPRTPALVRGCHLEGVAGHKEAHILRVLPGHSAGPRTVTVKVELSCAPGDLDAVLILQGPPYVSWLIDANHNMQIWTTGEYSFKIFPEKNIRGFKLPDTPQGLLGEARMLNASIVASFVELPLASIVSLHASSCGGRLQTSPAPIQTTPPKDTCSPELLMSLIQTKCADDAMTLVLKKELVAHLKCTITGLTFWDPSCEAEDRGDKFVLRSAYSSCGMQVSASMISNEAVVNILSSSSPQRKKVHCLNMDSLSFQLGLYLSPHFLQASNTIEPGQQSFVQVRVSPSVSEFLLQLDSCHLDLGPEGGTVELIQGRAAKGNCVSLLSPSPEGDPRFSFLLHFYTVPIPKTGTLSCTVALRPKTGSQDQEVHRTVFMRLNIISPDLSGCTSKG

T3: recombinant human (rh) Endoglin ectodomain (residues 1-586) containing C-terminal 6xHis tag (human, UniProt P17813 26-586)
T3 construct: range 1-586; Purified from HEK-293 cells; the stated range 1-586 includes the signal peptide; also called purified sEng antigen; sEng
T3 sequence: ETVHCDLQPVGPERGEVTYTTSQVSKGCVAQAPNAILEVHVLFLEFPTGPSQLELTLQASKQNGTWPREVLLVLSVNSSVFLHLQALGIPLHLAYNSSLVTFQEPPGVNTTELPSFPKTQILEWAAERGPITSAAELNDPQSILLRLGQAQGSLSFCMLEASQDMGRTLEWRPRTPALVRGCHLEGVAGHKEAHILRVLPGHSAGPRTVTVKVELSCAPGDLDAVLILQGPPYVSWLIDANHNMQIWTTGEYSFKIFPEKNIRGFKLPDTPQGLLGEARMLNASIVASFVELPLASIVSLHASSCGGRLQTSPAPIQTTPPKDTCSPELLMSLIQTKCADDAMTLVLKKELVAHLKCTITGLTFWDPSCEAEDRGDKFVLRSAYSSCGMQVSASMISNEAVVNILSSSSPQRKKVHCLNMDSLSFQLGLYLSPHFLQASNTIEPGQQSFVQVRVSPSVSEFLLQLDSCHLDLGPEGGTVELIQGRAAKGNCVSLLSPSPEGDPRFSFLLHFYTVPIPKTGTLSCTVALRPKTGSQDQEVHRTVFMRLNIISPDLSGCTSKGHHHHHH

T4: recombinant human (rh) Endoglin ectodomain (residues 1-586) fused with human IgG1 Fc (human, UniProt P17813 26-586)
T4 construct: range 1-586; The stated range 1-586 includes the signal peptide, which would be absent from the secreted protein; also called sEng-Fc; sEng/Fc fusion protein; not shown: human IgG1 Fc
T4 sequence (looked up): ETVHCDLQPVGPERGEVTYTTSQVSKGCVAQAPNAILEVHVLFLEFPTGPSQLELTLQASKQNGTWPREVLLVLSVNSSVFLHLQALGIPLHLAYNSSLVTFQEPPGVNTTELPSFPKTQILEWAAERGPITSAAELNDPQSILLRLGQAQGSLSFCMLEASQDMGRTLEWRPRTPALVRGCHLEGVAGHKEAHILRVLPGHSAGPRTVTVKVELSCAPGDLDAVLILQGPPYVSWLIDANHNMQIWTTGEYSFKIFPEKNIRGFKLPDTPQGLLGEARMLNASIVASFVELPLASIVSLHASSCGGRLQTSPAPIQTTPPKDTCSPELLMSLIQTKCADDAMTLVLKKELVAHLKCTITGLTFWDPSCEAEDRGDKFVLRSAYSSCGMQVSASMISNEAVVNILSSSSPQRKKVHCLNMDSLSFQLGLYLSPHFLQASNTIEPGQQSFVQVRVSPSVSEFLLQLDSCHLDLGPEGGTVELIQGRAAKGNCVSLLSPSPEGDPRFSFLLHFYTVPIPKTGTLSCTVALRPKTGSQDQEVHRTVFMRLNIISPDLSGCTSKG


Columns and labels:
[1] = target: T5, endogenous sFlt-1 in pooled serum of pre-eclampsia patients (human, UniProt P17948-2 27-687, limits assumed); test: 0.1 ml column, 1 mg antibody/ml beads, pooled serum of pre-eclampsia patients
T5 construct: also called sVEGFR1; soluble Flt-1 receptor
T5 sequence (P17948 other isoform, or with tags, fused parts or gaps limits assumed): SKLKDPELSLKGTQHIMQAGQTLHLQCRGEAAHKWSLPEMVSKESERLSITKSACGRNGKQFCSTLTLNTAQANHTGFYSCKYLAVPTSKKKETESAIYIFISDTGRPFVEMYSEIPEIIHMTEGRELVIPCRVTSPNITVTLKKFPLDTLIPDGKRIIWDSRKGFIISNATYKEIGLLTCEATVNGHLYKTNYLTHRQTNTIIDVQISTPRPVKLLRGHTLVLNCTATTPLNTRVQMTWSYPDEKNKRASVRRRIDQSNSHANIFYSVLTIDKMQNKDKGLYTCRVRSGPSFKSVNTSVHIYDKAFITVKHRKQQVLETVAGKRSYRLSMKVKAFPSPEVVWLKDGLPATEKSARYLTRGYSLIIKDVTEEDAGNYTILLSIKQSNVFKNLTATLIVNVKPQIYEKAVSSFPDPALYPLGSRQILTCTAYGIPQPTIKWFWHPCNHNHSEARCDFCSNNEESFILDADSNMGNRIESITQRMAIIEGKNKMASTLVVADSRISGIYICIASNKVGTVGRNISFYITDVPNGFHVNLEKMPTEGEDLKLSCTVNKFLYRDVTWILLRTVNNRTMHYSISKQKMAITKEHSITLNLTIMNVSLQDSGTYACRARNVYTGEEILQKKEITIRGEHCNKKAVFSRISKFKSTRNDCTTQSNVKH

purified human Bmp9 = target: T1, purified human Bmp9; test: sandwich ELISA: cENG10 coated at 4 ug/mL, serial dilutions of Bmp9 alone, bound Bmp9 detected with biotinylated anti-Bmp9 antibody and an HRP conjugate
Description: (§1) For the ELISA experiment shown, cENG10 antibody was coated onto microplates and incubated with the analyte (a preformed Bmp9/sEng complex, Bmp9 alone, or sEng alone). Bound Bmp9 was detected using a biotinylated anti-Bmp9 antibody and a secondary, HRP-conjugated antibody, allowing for colorimetric detection of cENG10 binding to the Bmp9/sEng complex.
(§2) To test whether or not antibody cENG10 blocks binding of sEng and its ligands was assessed using a sandwich ELISA. To that end, purified human Bmp9 and sEng were mixed at equimolar ratio in PBS (final total concentration 1 μM), incubated for 30 min and serially diluted (in 1% BSA) to 0.02 to 20 nM. Control solutions containing only Bmp9 or sEng were also prepared. Antibody cENG10 (4 μg/mL) was coated onto microplate wells. After a washing step, the wells were blocked with 1% BSA. Serial dilutions of either the preformed Bmp9-sEng complex, sEng alone, or Bmp9 alone were added and the plates incubated for 90 min. After another wash step, bound Bmp9 was detected using a biotinylated anti-Bmp9 antibody and a secondary, HRP-conjugated antibody, allowing for colorimetric detection of cENG10 binding to the Bmp9/sEng complex.

[2] = target: T2, soluble Endoglin (sEng), recombinant, …; test: sandwich ELISA: cENG10 coated at 4 ug/mL, serial dilutions of preformed equimolar Bmp9/sEng complex, bound Bmp9 detected with biotinylated anti-Bmp9 antibody and an HRP conjugate
Description: as §1, §2

[3] = target: T3, recombinant human (rh) Endoglin …; test: BLI (Octet QK), purified MAb on Protein-G biosensor, sEng 1-586 6xHis 50 nM in solution
Description: Materials: Kinetics buffer—PBS solution containing 0.1% BSA and 0.05% Tween-20. Anti-sEng antibodies were purified from ascites of mice injected with hybridoma cells by Protein-G chromatography and buffer exchanged into PBS. For each run, 22 ug/ml (or 150 nM) of each antibody was loaded onto the Protein-G biosensor tip. Purified sEng antigen recombinant human (rh) Endoglin ectodomain (residues 1-586) containing C-terminal 6×His tag was purified from HEK-293 cells by metal affinity chromatography followed by size-exclusion chromatography pre-equilibrated in PBS. For each run, 3 ug/ml (or 50 nM) of sEng was used for association to MAbs bound to Protein-G biosensor tips. Protein-G Biosensor tips were purchased from the instrument supplier.

[4] = target: T4, recombinant human (rh) Endoglin …; test: BLI (Octet QK), MAb from hybridoma supernatant captured on anti-mouse IgG biosensor, sEng-Fc 170 nM in solution
Description: Materials: Kinetics buffer—PBS solution containing 0.1% BSA and 0.05% Tween-20 was used as the kinetics buffer. Test samples—culture supernatants from top 21 hybridoma clones with the strongest signals for binding to the sEng-Fc antigen as determined by ELISA. sEng antigen—recombinant human (rh) Endoglin ectodomain (residues 1-586) fused with human IgG1 Fc, diluted to 170 nM (30 ug/ml) with kinetics buffer. Biosensors—streptavidin biosensors, preloaded with biotinylated sheep anti-mouse IgG.
Binding affinities were determined using the ForteBio label-free Octet QK BLI system using the following protocol: [0237] i. Condition: Immerse biosensor tips in 200 uL of kinetics buffer for >10 min. [0238] ii. Baseline 1: Immerse biosensors in fresh culture medium for 1 min. [0239] iii. Load: Immerse biosensors in culture supernatant samples containing MAbs for 3 min. [0240] iv. Baseline: Immerse biosensors in kinetics buffer for 1 min. [0241] v. Binding/Association: Incubate biosensors with sEng-Fc Antigen for 5 min. [0242] vi. Dissociation: Incubate biosensors in kinetics buffer for 5 min.
Response signals (nm shifts) were used to calculate Kd values for the different antibodies.

Row | Binder | binding result [1] | binding result (purified human Bmp9) | EC50 (read off the curve) [2] [nM] | Kd [3] [nM] | Kd [4] [nM]
1 | chimeric anti-sEng antibody cENG10 (antibody, human IgG1, kappa, N297Q, V domains shown, Murine MAb 210 variable regions on human IgG1 / kappa constant regions; also called αEng; cENG10 (CHO-derived)) VH: EVQLEQSGPEVVKPGTSVKISCKTSGYTITEHTLHWIKQNQGKSLEWIGGINFDNGGTTYRQKFKDKATLTVDKSSSTAFMELRSLTSDDSAVYFCARRAYYYGSAFDYWGQGTTLTVSS VL: ENVLTQSPAIMSASLGEKVTMTCRASSSVNYVYWYQQKSDASPKLWIYYTSNLAPGVPARFSGSGSGNSYSLTISSMEGEDAATYYCQQFISFPYTFGGGTKLEIKR | no binding | no binding (tested: 20 nM) | ~3 |  | 
2 | MAb 210 (antibody, V domains shown, Murine monoclonal antibody from hybridoma; also called lead antibody) VH: EVQLEQSGPEVVKPGTSVKISCKTSGYTITEHTLHWIKQNQGKSLEWIGGINFDNGGTTYRQKFKDKATLTVDKSSSTAFMELRSLTSDDSAVYFCARRAYYYGSAFDYWGQGTTLTVSS VL: ENVLTQSPAIMSASLGEKVTMTCRASSSVNYVYWYQQKSDASPKLWIYYTSNLAPGVPARFSGSGSGNSYSLTISSMEGEDAATYYCQQFISFPYTFGGGTKLEIK |  |  |  | 2.2 | 0.61
